Paper PMC4399817
Values belong to the substance of their own block, whether it stands above or below them.

Tests used:
[1] = molecular target: HLA-B27.C101S, C-terminally Sv5 tagged misfolding mutant of HLA-B*27:05 (human); test: non-reducing SDS-PAGE and immunoblot
[2] = molecular target: HLA-B27.C164S, C-terminally Sv5 tagged misfolding mutant of HLA-B*27:05 (human); test: non-reducing SDS-PAGE and immunoblot
[3] = molecular target: HLA-B*27:05 heavy chain, carboxy terminally Sv5 tagged, stably expressed in isogenic HeLa cells (HeLa-B27.Sv5) (human); test: pulse chase, immunoprecipitation and non-reducing SDS-PAGE

stoichiometry N [1]: 2
Substance: HLA-B27.C101S, C-terminally Sv5 tagged misfolding mutant of HLA-B*27:05 (natural protein)

stoichiometry N [2]: 2
Substance: HLA-B27.C164S, C-terminally Sv5 tagged misfolding mutant of HLA-B*27:05 (natural protein)

stoichiometry N [3]: 2
Substance: HLA-B*27:05 heavy chain, carboxy terminally Sv5 tagged, stably expressed in isogenic HeLa cells (HeLa-B27.Sv5) (natural protein)
